In patent publication US10919943B2, “Mutant proteins enabling agrochemical control of plant gene expression” (The Regents of the University of California, priority 2016, dated 2021):

Target: T1, wild type HAB1 (Arabidopsis thaliana, UniProt O49686+Q9CAJ0, A160V/F108A/F159V/K59R/M158I/S122G/T162D/V81I/Y58H)
T1 construct: expressed in transfected cells
T1 sequence (Q9CAJ0 4-511): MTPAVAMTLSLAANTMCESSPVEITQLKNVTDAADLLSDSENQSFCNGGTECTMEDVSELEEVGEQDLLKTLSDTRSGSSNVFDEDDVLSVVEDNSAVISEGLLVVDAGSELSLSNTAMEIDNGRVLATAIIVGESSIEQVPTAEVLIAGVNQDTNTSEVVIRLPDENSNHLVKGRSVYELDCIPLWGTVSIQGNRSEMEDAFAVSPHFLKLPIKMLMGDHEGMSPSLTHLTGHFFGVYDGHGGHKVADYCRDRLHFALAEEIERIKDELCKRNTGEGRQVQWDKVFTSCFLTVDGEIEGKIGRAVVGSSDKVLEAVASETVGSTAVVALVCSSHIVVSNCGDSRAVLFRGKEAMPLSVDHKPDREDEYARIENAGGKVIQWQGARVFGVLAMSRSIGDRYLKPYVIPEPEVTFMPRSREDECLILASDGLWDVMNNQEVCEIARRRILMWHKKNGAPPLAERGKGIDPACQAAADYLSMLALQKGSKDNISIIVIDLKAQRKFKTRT
T1 sequence (O49686 1-191 Y58H/K59R/V81I/F108A/S122G/M158I/F159V/A160V/T162D): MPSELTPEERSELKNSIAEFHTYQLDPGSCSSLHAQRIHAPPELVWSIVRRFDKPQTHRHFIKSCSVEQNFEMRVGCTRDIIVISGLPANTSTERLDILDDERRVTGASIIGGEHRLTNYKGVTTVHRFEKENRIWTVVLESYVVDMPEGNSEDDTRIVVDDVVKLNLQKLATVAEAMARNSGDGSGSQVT
Assay: Yeast two hybrid, mandipropamid-promoted interaction of PYR1 variants with wild type HAB1
Format: cell-based
Description: To engineer orthogonal mandipropamid responsiveness, we introduced the PYR1^! mutation into the PYR1^MANDI receptor to create a septuple mutant called PYR1^!-MANDI (PYR1^Y58H;K59R;V81I;F108A;S122G;F159L;T162D). This mutant interacts with HAB1^! and HAB^!-2 in response to low μM mandipropamid in yeast two-hybrid assays, but is ˜100-fold less sensitive than the PYR1^MANDI/HAB1 interaction, which responds to concentrations in the low nM range (FIG. 3).
To improve sensitivity, we mutagenized ligand contacting and interface residues in PYR1^!-MANDI using NNK primers, pooled the mutant libraries, and used the mutagenized receptors in selection experiments using to identify enhancer mutations. The NNK mutagenesis screen targeted the following residues: P55, H60, F61, I62, K63, V83, S85, G86, L87, P88, A89, S92, E94, I110, H115, R116, L117, Y120, E141, P148, G150, N151, D154, D155, T156, M158, A160, V163, V164, L166, N167, and K170. […] Since M158 and A160 flank the F159V mutation present in PYR1^MANDI, we inferred that the closely located orthogonalizing T162D mutation in PYR1^!-MANDI may have reduced mandipropamid sensitivity by altering the local structure of the C-terminal α3-helix, which participates in ligand-induced conformational changes needed for PP2C binding (Nishimura et al., 2009). […]

B1: PYR1*^-MANDI: PYR1 mutant with 9 mutations, most sensitive to mandipropamid (protein, listed as Arabidopsis thaliana)
chain: MPSELTPEERSELKNSIAEFHTYQLDPGSCSSLHAQRIHAPPELVWSIVRRFDKPQTHRHFIKSCSVEQNFEMRVGCTRDIIVISGLPANTSTERLDILDDERRVTGASIIGGEHRLTNYKGVTTVHRFEKENRIWTVVLESYVVDMPEGNSEDDTRIVVDDVVKLNLQKLATVAEAMARNSGDGSGSQVT
FIG. 6
  fold less sensitivity to mandipropamid than the orthogonal interaction: ~10 fold
Yeast two hybrid
  interaction with wild type HAB1: weakly interacts
